We go through two molecules from paper PMC4970318.

A value given as a limit tells only on which side of the number the result lay.

One experiment concerns the target CAT. As to the kind of experiment: competition.
The target in the next experiment is FD1. The experiment can be described thus: competition.
A further experiment addresses RD2. As to the kind of experiment: competition.
Another experiment has as its target RD3. The experiment can be described thus: competition.
Experiment [1] has as its target LPA2 6-mer (Homo sapiens). The experiment can be described thus: competition.
Another experiment has as its target FD2. The experiment can be described thus: competition.
The next experiment deals with RD1. As to the kind of experiment: competition.
Another experiment addresses CST. The experiment can be described thus: competition.
Another experiment has as its target FD3. The experiment can be described thus: competition.
The target in experiment [2] is LPA2 10-mer (Homo sapiens).
For experiment [3], the target named is Claudin23 10-mer (Homo sapiens).

As a reminder, the Kd is the free concentration of one partner at which half of the binding sites on the other are occupied at equilibrium, for simple one-to-one binding. What is called Ki is the equilibrium dissociation constant of an inhibitor or competing ligand from its target.

B1: NHERF-2 PDZ2 (N2P2) PDZ2, Q15599 (protein)
chain: LRPRLCHLRKGPQGYGFNLHSDKSRPGQYIRSVDPGSPAARSGLRAQDRLIEVNGQNVEGLRHAEVVASIKAREDEARLLVVDPETD
As for B1, the values for the Kd (with FD2 8-mer; in [2]) were 3.6 µM and 11.5 µM, respectively. For the same molecule, the Ki with CAT stood at 254 µM; with FD1, 14.2 µM; with RD2, 12.5 µM; with RD3, 4.6 µM; in [1], 28.4 µM; in the experiment with FD2, 6.8 µM. The results for the inhibition constant Ki with RD1, with CST and with FD3 were 5.4 µM, 54.8 µM and 9.1 µM, respectively.

B2: MAGI-3 PDZ6 (M3P6) PDZ6, Q5TCQ9 (protein)
chain: GCYPVELERGPRGFGFSLRGGKEYNMGLFILRLAEDGPAIKDGRIHVGDQIVEINGEPTQGITHTRAIELIQAGGNKVLLLLRPGTGLI
In [3], B2 gave an equilibrium dissociation constant (Kd) of 3.6 µM. Moreover, the inhibitory constant (Ki) with FD1 is 600 µM; in the experiment with RD2, 2.7 µM; with RD3, 6.8 µM; in experiment [1] it was 47.4 µM; in the experiment with FD2, greater than 1000 µM; in the experiment with RD1, 1.8 µM. Also, the inhibitory constant (Ki) in the experiment with FD3 is greater than 1000 µM.
